These results are taken from publication PMC8006170.

Substrate in the series: NCC(=O)CCC(=O)O
Briefly: PbgS activity assay in lysate of overexpressing cells, Michaelis-Menten. The series is classed as biochemical, Acinetobacter baumannii. As to conditions: native wt lysate included as control to subtract basal activity.

B1: PbgS(wt) (Acinetobacter baumannii ATCC 19606 = CIP 70.34 = JCM 6841) (protein)
chain: MGLQYSSRLTVMEYPPTYPSVIPNIEIVMTYTFNRPAFPATRMRRIRKNDQLRAMVSETQLTTNHLIYPVFVLPGQNQTQDIPSMPNIQRLSADLLLKKAERLLELGVSKLALFPVTPQEDKSLTAEAAWREDGLVQTTCRLLKKELPEMVLITDGALDPYTTHGQDGIIDETGYVLNDETVECLIKQALSHAEAGAEVIAPSDMMDGRIGAIRQALEANGHIYTNIMAYSAKYASSFYGPFRDAVGSASNLKGGNKYNYQMDFANRAEALHEIALDIQEGADMVIVKPGMPYLDVVREVKDTFGIPTFIYQVSGEYAMLAGAIQNGWLSDSVILESLMCCRRAGADGIWTYFAETAAEKLKEMN
As to B1, the Km came to 153 µM.
